From patent US20170233497A1 (Genmab, published 2017)
Positions count from the first letter of the chain named. Names may count otherwise.

B1: CH2-CH3 fragment of human IgG1 with K409R (other, UniProt P01857-1 224-330, looked up, name in EU numbering)
chain: GQPREPQVYTLPPSRDELTKNQVSLTCLVKGFYPSDIAVEWESNGQPENNYKTTPPVLDSDGSFFLYSRLTVDKSRWQQGNVFSCSVMHEALHNHYTQKSLSLSPGK
notes: range 341-447; As m1, with the mutation; also called G1-K409R; not shown: N-terminal 6 amino acid His tag
B2: CH2-CH3 fragment of human IgG1 with F405L (other, UniProt P01857-1 224-330, looked up, name in EU numbering)
chain: B1 chain with F65L, R69K
notes: range 341-447; As m1, with the mutation; also called G1-F405L; not shown: N-terminal 6 amino acid His tag
B3: CH2-CH3 fragment of human IgG4 with K370E (other, UniProt P01861-1 221-327, looked up, name in EU numbering)
chain: B1 chain with R15Q, D16E, L18M, K30E, Q79E, P105L
notes: range 341-447; As m7, with the mutation; also called G4-K370E; not shown: N-terminal 6 amino acid His tag
B4: CH2-CH3 fragment of human IgG1 with K370T (other, UniProt P01857-1 224-330, looked up, name in EU numbering)
chain: B1 chain with K30T, R69K
notes: range 341-447; As m1, with the mutation; also called G1-K370T; not shown: N-terminal 6 amino acid His tag
B5: CH2-CH3 fragment of human IgG4 with F405A (other, UniProt P01861-1 221-327, looked up, name in EU numbering)
chain: B1 chain with R15Q, D16E, L18M, F65A, Q79E, P105L
notes: range 341-447; As m7, with the mutation; also called G4-F405A; not shown: N-terminal 6 amino acid His tag
B6: CH2-CH3 fragment of human IgG4 with E357T (other, UniProt P01861-1 221-327, looked up, name in EU numbering)
chain: B1 chain with R15Q, D16E, E17T, L18M, Q79E, P105L
notes: range 341-447; As m7, with the mutation; also called G4-E357T; not shown: N-terminal 6 amino acid His tag
B7: CH2-CH3 fragment of human IgG4 with K370Q (other, UniProt P01861-1 221-327, looked up, name in EU numbering)
chain: B1 chain with R15Q, D16E, L18M, K30Q, Q79E, P105L
notes: range 341-447; As m7, with the mutation; also called G4-K370Q; not shown: N-terminal 6 amino acid His tag
B8: CH2-CH3 fragment of human IgG4 with F405L (other, UniProt P01861-1 221-327, looked up, name in EU numbering)
chain: B1 chain with R15Q, D16E, L18M, F65L, Q79E, P105L
notes: range 341-447; As m7, with the mutation; also called G4-F405L; not shown: N-terminal 6 amino acid His tag
B9: CH2-CH3 fragment of human IgG4 with L351K (other, UniProt P01861-1 221-327, looked up, name in EU numbering)
chain: B1 chain with L11K, R15Q, D16E, L18M, Q79E, P105L
notes: range 341-447; As m7, with the mutation; also called G4-L351K; not shown: N-terminal 6 amino acid His tag
B10: CH2-CH3 fragment of human IgG4 with R409W (other, UniProt P01861-1 221-327, looked up, name in EU numbering)
chain: B1 chain with R15Q, D16E, L18M, R69W, Q79E, P105L
notes: range 341-447; As m7, with the mutation; also called G4-R409W; not shown: N-terminal 6 amino acid His tag
B11: CH2-CH3 fragment of human IgG4 with R409K (other, UniProt P01861-1 221-327, looked up, name in EU numbering)
chain: B1 chain with R15Q, D16E, L18M, R69K, Q79E, P105L
notes: range 341-447; As m7, with the mutation; also called G4-R409K; not shown: N-terminal 6 amino acid His tag
B12: CH2-CH3 fragment of human IgG4 with R409L (other, UniProt P01861-1 221-327, looked up, name in EU numbering)
chain: B1 chain with R15Q, D16E, L18M, R69L, Q79E, P105L
notes: range 341-447; As m7, with the mutation; also called G4-R409L; not shown: N-terminal 6 amino acid His tag
B13: CH2-CH3 fragment of human IgG4 with S364D (other, UniProt P01861-1 221-327, looked up, name in EU numbering)
chain: B1 chain with R15Q, D16E, L18M, S24D, Q79E, P105L
notes: range 341-447; As m7, with the mutation; also called G4-S364D; not shown: N-terminal 6 amino acid His tag
B14: CH2-CH3 fragment of human IgG4 with R409A (other, UniProt P01861-1 221-327, looked up, name in EU numbering)
chain: B1 chain with R15Q, D16E, L18M, R69A, Q79E, P105L
notes: range 341-447; As m7, with the mutation; also called G4-R409A; not shown: N-terminal 6 amino acid His tag
B15: CH2-CH3 fragment of human IgG4 with R409T (other, UniProt P01861-1 221-327, looked up, name in EU numbering)
chain: B1 chain with R15Q, D16E, L18M, R69T, Q79E, P105L
notes: range 341-447; As m7, with the mutation; also called G4-R409T; not shown: N-terminal 6 amino acid His tag
B16: CH2-CH3 fragment of human IgG1 with T350I (other, UniProt P01857-1 224-330, looked up, name in EU numbering)
chain: B1 chain with T10I, R69K
notes: range 341-447; As m1, with the mutation; also called G1-T350I; not shown: N-terminal 6 amino acid His tag
B17: CH2-CH3 fragment of wild type human IgG4 (other, UniProt P01861-1 221-327, looked up)
chain: B1 chain with R15Q, D16E, L18M, Q79E, P105L
notes: range 341-447; His-tagged fragment without hinge; the KD is its non-covalent self-association (CH3-CH3 homodimer); not shown: N-terminal 6 amino acid His tag
B18: CH2-CH3 fragment of human IgG4 with R409M (other, UniProt P01861-1 221-327, looked up, name in EU numbering)
chain: B1 chain with R15Q, D16E, L18M, R69M, Q79E, P105L
notes: range 341-447; As m7, with the mutation; also called G4-R409M; not shown: N-terminal 6 amino acid His tag
B19: CH2-CH3 fragment of human IgG1 with T350I-K370T-F405L (other, UniProt P01857-1 224-330, looked up, name in EU numbering)
chain: B1 chain with T10I, K30T, F65L, R69K
notes: range 341-447; also called G1-ITL; not shown: N-terminal 6 amino acid His tag

Legend:
[1] = biological target: the molecule itself; assay: native mass spectrometry; CH2-CH3 fragment homodimer
Protocol: (§1) The fragments were analyzed by native mass spectrometry. Samples were buffer-exchanged to 100 mM ammonium acetate pH 7, using 10 kDa MWCO spin-filter columns. Aliquots (˜1 μL) of serial diluted samples (20 μM-25 nM; monomer equivalent) were loaded into gold-plated borosilicate capillaries for analysis on a LCT mass spectrometer (Waters). The monomer signal, Mₛ, was defined as the area of the monomer peaks as a fraction of the area of all peaks in the spectrum (Mₛ/(Mₛ+Dₛ) where Dₛ=the dimer signal). The concentration of monomer at equilibrium, [M]eq, was defined as Mₛ·[M]₀ where [M]₀ is the overall protein concentration in terms of monomer. The dimer concentration at equilibrium, [D]eq, was defined as ([M]₀−[M]eq)/2. The KD, was then extracted from the gradient of a plot of [D]eq versus [M]eq².
It is described in Example 21 that there is a specific range in the strength of the interaction of the CH3-CH3 homodimers that allows efficient Fab-arm-exchange. The strength of the interactions at the CH3 interface should be such that it is possible that both heavy chains in the parental antibodies (homodimers) dissociate in the Fab-arm-exchange reaction and that they subsequently associate in the heterodimerization reaction. To generate a stable heterodimer, the strength of the heterodimer interaction should be greater than the strength of the homodimer interaction, such that it favors heterodimerization over homodimerization. To confirm this, the strength of the CH3-CH3 interaction in the heterodimers was measured and compared to the strength in the homodimers. The KD of the CH2-CH3 fragments derived from IgG1-K409R, IgG1-F405L and IgG1-ITL homodimers were measured as described in Example 21. For the determination of the KD in heterodimers, CH2-CH3 domain fragments (G1-F405L and G1-ITL) were mixed with the IgG1Δhinge fragment of IgG1-7D8-K409R, which contain all antibody domains except the hinge. […] The fragments were mixed and analyzed after 24 hours by native mass spectrometry as described in Example 21. […]

[2] = biological target: the molecule itself; assay: native mass spectrometry; KD compared to the wild type IgG1 CH2-CH3 fragment
Protocol: as §1, with “To measure the effect of the above mentioned CH3 mutations on the strength of the CH3-CH3 interaction, fragments composed of only the CH2-CH3 domains were made. The lack of a hinge region in these fragments prevented covalent inter-heavy chain disulfide bonds. The fragments” for “The fragments”

[3] = biological target: the molecule itself; assay: native mass spectrometry; monomer-dimer equilibrium of the hinge-less CH2-CH3 fragment (homodimer)
Protocol: as §1, with “To measure the effect of the above mentioned CH3 mutations on the strength of the CH3-CH3 interaction, fragments composed of only the CH2-CH3 domains were made. The lack of a hinge region in these fragments prevented covalent inter-heavy chain disulfide bonds. The fragments” for “The fragments”

[4] = biological target: the molecule itself; assay: native mass spectrometry; KD compared to the wild type IgG4 CH2-CH3 fragment
Protocol: as §1, with “To measure the effect of the above mentioned CH3 mutations on the strength of the CH3-CH3 interaction, fragments composed of only the CH2-CH3 domains were made. The lack of a hinge region in these fragments prevented covalent inter-heavy chain disulfide bonds. The fragments” for “The fragments”

Row | Protein | Kd [1] [nM] | fold-difference [2] [fold] | Kd [3] [nM] | fold-difference [4] [fold]
1 | B1 | 110 | 0.03 | 110 | –
2 | B2 | 850 | – | – | –
3 | B3 | – | – | 2 | 24
4 | B4 | – | 0.07 | 45 | –
5 | B5 | – | – | 19000 | 0.0025
6 | B6 | – | – | 41000 | 0.0012
7 | B7 | – | – | 11 | 4.3
8 | B8 | – | – | 25000 | 0.0019
9 | B9 | – | – | 740 | 0.06
10 | B10 | – | – | 34000 | 0.0014
11 | B11 | – | – | 8 | 6
12 | B12 | – | – | 15 | 3.2
13 | B13 | – | – | 47 | 1.02
14 | B14 | – | – | 160 | 0.3
15 | B15 | – | – | 720 | 0.07
16 | B16 | – | 0.4 | 7 | –
17 | B17 | – | – | 48 | 1
18 | B18 | – | – | 3 | 16
19 | B19 | 1200 | 0.003 | 1000 | –
